Experimental findings from patent publication US20190010248A1 (Pieris, published 2019) are described below.

This test concerns the target T1, recombinant CD137-Fc fusion (#838-4B-100, R&D Systems) (human, UniProt Q07011 24-186).
T1 construct: also called Fc-fusion of human CD137; human CD137-Fc; not shown: Fc part of the bought fusion
Kind of test: ELISA, CD137-Fc coated, detection with anti-hNGAL antibody-HRP.

B1: lipocalin mutein of SEQ ID NO: 2 (designed binder)
chain: QDSTSDLIPAPPLSKVPLQQNFQDNQFHGKWYVVGQAGNIRLREDKDPIKMMATIYELKEDKSYDVTMVKFDDKKCMYDIWTFVPGSQPGEFTLGKIKSFPGHTSSLVRVVSTNYNQHAMVFFKFVFQNREEFYITLYGRTKELTSELKENFIRFSKSLGLPENHIVFPVPIDQCIDG
notes: also called positive control lipocalin mutein; CD137-specific lipocalin mutein in monomeric form
In general, EC50 refers to the concentration giving half of the maximal effect. As to B1, the EC50 stood at 490 pM.
